Patent US12187807B2, “Antibody molecules to C5AR1 and uses thereof” (Visterra, Inc., priority 2020, dated 2025)

Tests used:
[1] = molecular target: T1, C5aR1 on human neutrophils (Homo sapiens, UniProt P21730); test: Cell surface binding (flow cytometry), human neutrophils; settings: half-log titrations 10^−7.5 to 10^−12 M, vs isotype controls
T1 construct: neutrophils isolated from whole blood; host or cells: human neutrophils (cryopreserved, or isolated from whole blood)
T1 sequence (P21730 1-350): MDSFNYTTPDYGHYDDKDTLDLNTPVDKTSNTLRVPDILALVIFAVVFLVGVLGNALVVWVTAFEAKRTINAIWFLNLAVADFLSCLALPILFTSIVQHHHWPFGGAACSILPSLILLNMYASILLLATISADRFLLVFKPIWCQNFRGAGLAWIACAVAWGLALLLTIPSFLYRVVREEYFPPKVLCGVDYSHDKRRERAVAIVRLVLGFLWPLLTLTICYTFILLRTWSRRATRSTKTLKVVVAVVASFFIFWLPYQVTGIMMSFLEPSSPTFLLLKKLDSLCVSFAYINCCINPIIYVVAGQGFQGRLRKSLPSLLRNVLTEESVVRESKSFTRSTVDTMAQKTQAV
Protocol: Follow up screening to ensure specificity was performed by measuring cell surface binding to cells expressing, for example, human C5aR1, human C5aR2, mouse C5aR1, and control cells that were mock transfected. Briefly, cell surface binding was performed on various C5aR1 expressing cell lines (transiently expressed Expi293 cells, stable C5aR1-U937 cells, and neutrophils isolated from whole blood). Briefly, a titration of antibody diluted in flow buffer (1×PBS with 2% fetal bovine serum) was incubated with cells for 1 hour at 4° C. Cells were washed twice with flow buffer. Anti-human-APC secondary antibody was diluted 1:400 in flow buffer and incubated with cells for 30 minutes. Cells were washed twice with flow buffer and resuspended in 100 μL of flow buffer. Fluorescence was measured using the iQue Screen Plus flow cytometer.
Exemplary anti-C5aR1 antibodies generated as described in Example 1 were tested for binding to human neutrophils. Briefly, cryopreserved human neutrophils were obtained from Asarte Biologics.

[2] = molecular target: T2, C5aR1 (human neutrophils) (Homo sapiens, UniProt P21730); test: C5a induced calcium flux (Fluo-4), human neutrophils; format: cell-based
T2 construct: neutrophils isolated from whole blood; host or cells: human neutrophils (cryopreserved, or isolated from whole blood)
T2 sequence (P21730 1-350): T1 sequence (P21730 1-350)
Source text: Intracellular calcium is released into the cytoplasm by stimulation of GPCRs and acts as a second messenger of GPCR signaling, commonly used to quantify GPCR agonism and antagonism. As such, calcium flux assays using calcium sensitive dye were utilized to detect cytosolic changes in calcium concentration. […] The dye penetrated the cell membrane and became active once inside the cell. The active form of the dye became fluorescent after binding to intracellular calcium and the fluorescence was used to determine C5aR1 signaling in response to C5a addition. Specifically, stable C5aR1-U937 cells or neutrophils isolated from whole blood were stained with Fluo-4 Direct Calcium Assay kit from Thermo Fisher for 1 hour at 37° C. Next, antibody or antagonist was incubated with the cells for 30 minutes. The basal fluorescence with an excitation at 494 nm and emission at 516 nm was measured for 15 seconds. C5a was added to the cells and the fluorescence was measured over a span of four minutes. The basal read from before C5a stimulation and the max signal after C5a stimulation were used to calculate the response ratio. The potency of the antibodies was assessed for their ability to inhibit intracellular calcium release in C5aR1 expressing cells in the presence of C5a. Similar to the chemotaxis assay, the calcium flux assays were performed using engineered cells stably expressing C5aR1 as well as using human neutrophils.

[3] = molecular target: T3, biotinylated peptide representing the N-terminus of C5aR1 with tyrosine sulfation (Homo sapiens, UniProt P21730); test: Epitope mapping by biolayer interferometry, N-terminus with tyrosine sulfation; format: binding; parameters: key: “+” indicates binding to the listed peptide; “−” indicates lack of binding to the listed peptide; settings: 10 μg/mL of antibody, biotinylated peptide on streptavidin biosensor
T3 construct: the N-terminus with tyrosine sulfation
T3 sequence (P21730 1-37): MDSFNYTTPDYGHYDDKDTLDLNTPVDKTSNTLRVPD
Protocol: The epitope mapping was undertaken, using biolayer interferometry, on a series of exemplary anti-C5aR1 antibodies generated as described in Example 1. Briefly, for each antibody, biotinylated peptides representing ECL2, the N-terminus with tyrosine sulfation, and the N-terminus without tyrosine sulfation, were immobilized in a streptavidin biosensor. Subsequently, the biosensor was exposed to 10 μg/mL of antibody to detect antibody binding to the immobilized peptide. The results of the epitope mapping study are shown in Table 4 (“+” indicates binding to the listed peptide; “−” indicates lack of binding to the listed peptide).

[4] = molecular target: T4, C5aR1 (Homo sapiens, UniProt P21730); test: GeneBLAzer reporter assay (C5aR1 mediated Gα signaling); format: cell-based; parameters: host or cells: vendor's C5aR1 GeneBLAzer reporter cell line; settings: for antagonism of C5aR1 compared to reference antibodies or to Avacopan: 10 nM of antibody, 10 nM C5a; for inhibition of C5aR1 signaling / activity in the GeneBLAzer assay: C5a dose response with varying concentrations of antibody; for inhibition of C5aR1 mediated Gα signaling in the presence of C5-alpha: U937 cells, increasing concentrations of C5-alpha, FIGS. 20A-20G
T4 sequence (P21730 1-350): T1 sequence (P21730 1-350)
Protocol: In addition, a GeneBLAzer reporter assay was used, which mimics the calcium flux assay. The GeneBLAzer assay kit and C5aR1 cell line were commercially available from Thermo Fisher (Catalog #K1544). The assay was performed as recommend by the manufacturer. Briefly, antibodies or antagonists were incubated for 30 minutes at 37° C. C5a was then added to the cells and incubated at 37° C. for an additional 4-5 hours. Beta-lactamase substrate was then added and incubated for 2 hours at room temperature. Fluorescent measurements for each well with an excitation/emission of 409/460 (blue) and 409/530 (green) were measured. An increase in the blue to green ratio was proportional to C5aR1 activation and was used to calculate the percent of activation for the cells in each well.
Exemplary anti-C5aR1 antibodies generated as described in Example 1 were screened for antagonist activity against human C5aR1 using the GeneBLAzer assay, as described in Example 1. Briefly, cells were pre-incubated with 10 nM of antibody followed by addition of 10 nM C5a. The engineered induction of beta-lactamase expression by C5a-C5aR1 signaling was measured using the BLA substrate and calculating the ratio of blue and green fluorescence.

B1: clone 329: anti-C5aR1 Site II antibody; VH SEQ ID NO: 492, VL SEQ ID NO: 552 (antibody, V domains shown)
VH: QVQLQQSGAELTKPGASVKLSCKASGYTFTNYWMHWVKQRPGQGLEWIGYLNPSSGYTKYNQKFKDKATLTADKSSSTAYMQLNSLTYEDSAVYYCTRSGGDNYGNPYYFDRWGQGTTVTVSS
VL: DVVMTQTPLSLTVSLGDQASISCRSSQSLVHSNGNTYLHWYLQKPGQSPKFLIYKVSNRFSGVPDRFSGSGSGTDFRLKISRVEAEDLGVYFCSQSTLVPLTFGAGTKLEIK
[1]
  level of binding to human neutrophils: highest level of neutrophil binding
[2]
  inhibition of C5a induced calcium efflux: inhibition of the C5a induced calcium efflux
[3]
  Binding to Sulfated N-terminal peptide: −
[4]
  antagonism of C5aR1 compared to reference antibodies or to Avacopan: improved
  inhibition of C5aR1 signaling / activity in the GeneBLAzer assay: inhibited in a dose-dependent fashion
  inhibition of C5aR1 mediated Gα signaling in the presence of C5-alpha: inhibition of C5aR1 mediated Gα signaling

B2: clone 66: anti-C5aR1 Site I antibody; VH SEQ ID NO: 483, VL SEQ ID NO: 543 (antibody, V domains shown)
VH: QVQLQQSDAELVKPGASVKISCKASGYTFIDHAIHWVKQRPEQGLEWIGYISPGNGEIKYNEKFKAKATLTADKSSSAAYMQLNSLTSADSAVYFCKRALFYYTGKYQPMDYWGQGTTVTDSS
VL: DIVMTQSQKFMSTTAGDRVSITCKASQNVGSAVVWYQQKPGRSPKLLIYSSSIRYTGVPDRFTGSGSGTDFTLTINSVQSEDLADYFCQQYNSFPLTFGAGTKLEIK
[1]
  level of binding to human neutrophils: highest level of neutrophil binding
[3]
  Binding to Sulfated N-terminal peptide: +
[4]
  inhibition of C5aR1 signaling / activity in the GeneBLAzer assay: highly potent

B3: clone 583: anti-C5aR1 Site I antibody; VH SEQ ID NO: 536, VL SEQ ID NO: 595 (antibody, V domains shown)
VH: EVQLVESGGGLVKPGGSLKLSCAASGFTFNAYAMSWVRQTPEKRLEWVASISTGGNTYCPDSVKDRFTVSRDNVRNILYLQMSSLRSEDTAMYYCTRGYQRFSGFAYWGQGTLVTVS
VL: DVVMTQTPLSPPVSLGYQASISCRSSQSLVHSNGNTYLNWYLQKPGQSPKLLIYKVSNRLSGVPDRFSGSGSGTDFTLKISRVETEDLGVYFCSQSTHVPYTFGGGTKLEIK
[2]
  inhibition of C5a induced calcium efflux: inhibition of the C5a induced calcium efflux
[3]
  Binding to Sulfated N-terminal peptide: +
[4]
  antagonism of C5aR1 compared to reference antibodies or to Avacopan: improved
  inhibition of C5aR1 signaling / activity in the GeneBLAzer assay: highly potent
  inhibition of C5aR1 mediated Gα signaling in the presence of C5-alpha: inhibition of C5aR1 mediated Gα signaling
